Source: publication PMC5100581

Biological target: His-tagged Gins51 wild type (Thermococcus kodakaraensis)
Test: SPR

Kd: 0.23 µM
Substance: GAN mutant F55A/L57A (enzyme)
